Data from patent US20140161799A1 (ARCH ONCOLOGY, published 2014).

T1: rat CD47 (rat, UniProt P97829 19-303)
T1 construct: whole, on cells; also called CD47 on rat red blood cells
T1 sequence (looked up): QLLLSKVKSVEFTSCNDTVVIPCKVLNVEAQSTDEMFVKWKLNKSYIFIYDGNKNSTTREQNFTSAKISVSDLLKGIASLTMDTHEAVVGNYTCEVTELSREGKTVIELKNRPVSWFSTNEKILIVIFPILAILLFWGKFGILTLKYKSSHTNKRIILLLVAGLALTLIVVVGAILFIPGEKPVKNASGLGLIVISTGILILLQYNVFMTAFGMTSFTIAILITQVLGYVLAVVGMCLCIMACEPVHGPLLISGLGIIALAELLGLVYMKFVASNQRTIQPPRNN

T2: pig CD47 (pig, UniProt Q9GKE8 19-303)
T2 construct: whole, on cells; also called CD47 on pig red blood cells
T2 sequence (looked up): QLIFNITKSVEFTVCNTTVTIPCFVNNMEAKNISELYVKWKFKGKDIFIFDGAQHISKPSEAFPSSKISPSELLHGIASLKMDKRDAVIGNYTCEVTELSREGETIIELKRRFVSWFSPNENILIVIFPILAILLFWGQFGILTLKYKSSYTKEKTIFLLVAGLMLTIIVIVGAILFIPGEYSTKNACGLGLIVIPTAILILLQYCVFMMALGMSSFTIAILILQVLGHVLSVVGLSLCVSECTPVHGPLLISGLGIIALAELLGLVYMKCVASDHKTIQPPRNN

T3: mouse CD47 (mouse, UniProt Q61735 19-303)
T3 construct: whole, on cells; also called CD47 on mouse red blood cells
T3 sequence (looked up): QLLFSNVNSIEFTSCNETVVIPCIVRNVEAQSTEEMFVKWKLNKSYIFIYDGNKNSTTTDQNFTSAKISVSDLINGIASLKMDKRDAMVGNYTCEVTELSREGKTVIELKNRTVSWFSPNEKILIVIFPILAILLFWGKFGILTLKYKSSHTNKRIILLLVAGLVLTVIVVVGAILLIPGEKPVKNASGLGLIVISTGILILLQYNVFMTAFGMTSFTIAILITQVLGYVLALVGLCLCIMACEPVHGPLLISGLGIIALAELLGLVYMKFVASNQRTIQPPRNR


Columns and labels:
Test in all cases: flow cytometry on RBCs, antibody 10 ng/ml
rat CD47 = target: T1, rat CD47
Experimental: (§1) Cross species reactivity of humanized antibodies of the present invention is determined using freshly isolated red blood cells (RBCs), which display CD47 on their surface, from human, mouse, rat, and pig according to the methods disclosed in Kamel et al. (2010) Blood. Transfus. 8(4):260-266.
(§2) RBCs are incubated for 60 minutes on ice with tissue culture supernatants containing the secreted humanized antibodies at a concentration of 10 ng/ml in a solution of phosphate buffered saline, pH 7.2, 2.5 mM EDTA (PBS+E). Cells are then washed with cold PBS+E, and incubated for an additional hour on ice with FITC labeled donkey anti-human antibody (Jackson Immuno Research Labs, West Grove, Pa.; Catalogue #709-096-149) in PBS+E. Cells are then washed with PBS+E, and antibody binding is analyzed using a BD FACSAria Cell Sorter (Becton Dickinson) or a C6 Accuri Flow Cytometer (Becton Dickinson). Antibody binding is quantitated by comparison of mean fluorescence values relative to that of chimeric antibody >VxP037-01LC (SEQ ID NO:7))/>VxP037-01HC (SEQ ID NO:57). The mean fluorescence value for each antibody is divided by the mean fluorescence value for the chimeric antibody.

pig CD47 = target: T2, pig CD47
Experimental: as §1, §2

human CD47 = target: T4, human CD47 (human, UniProt Q08722 19-323)
T4 construct: whole, on cells; also called CD47 on human red blood cells
Experimental: as §1, §2

mouse CD47 = target: T3, mouse CD47
Experimental: as §1, §2

T4 sequence (Q08722 19-323): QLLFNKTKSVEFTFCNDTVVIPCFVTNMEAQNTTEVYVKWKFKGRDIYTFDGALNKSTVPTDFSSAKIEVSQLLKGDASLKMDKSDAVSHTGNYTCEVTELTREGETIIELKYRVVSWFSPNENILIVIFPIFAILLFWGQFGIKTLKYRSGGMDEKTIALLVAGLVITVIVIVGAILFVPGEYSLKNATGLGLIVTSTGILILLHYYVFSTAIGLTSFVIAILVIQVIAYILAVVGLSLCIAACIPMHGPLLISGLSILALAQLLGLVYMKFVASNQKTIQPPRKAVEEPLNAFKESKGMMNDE

mean fluorescence relative to chimeric antibody (rat CD47) | mean fluorescence relative to chimeric antibody (pig CD47) | mean fluorescence relative to chimeric antibody (human CD47) | mean fluorescence relative to chimeric antibody (mouse CD47) | Binder
1.2 fold of chimera | 1.1 fold of chimera | 0.8 fold of chimera | 0.7 fold of chimera | pVxK7b-037-hum24-LC/pVxK7b-037-hum24-HC (antibody, human IgG1, V domains shown, Full-length human IgG1/kappa in CHO supernatant; Variable entries end within framework 4 (...FGQG / ...WGQG); also called Clone 24) VH: QVQLQESGPGLVKPGATVKISCKVSGYTFTNYYVFWVRQARGQRLEWIGDINPVNGDTNFNEKFKNRVTITADKSTSTAYMELSSLRSEDTAVYYCARGGYTMDYWGQG VL: AIQLTQSPSSLSASVGDRVTITCRSSQSLVHSNGNTYLHWYQQKPGQAPRLLIYKVSYRFSGVPSRFSGSGSGTEFTLTISSLQPDDFATYYCSQNTHVPRTFGQG
0.8 fold of chimera | 0.9 fold of chimera | 0.5 fold of chimera | 0.4 fold of chimera | pVxK7b-037-hum07-LC/pVxK7b-037-hum07-HC (antibody, human IgG1, V domains shown, Full-length human IgG1/kappa in CHO supernatant; Variable entries end within framework 4 (...FGQG / ...WGQG); also called Clone 7) VH: QVQLQESGPGLVKPGATVKISCKVSGYTFTNYYVFWVRQARGQRLEWIGDINPVNGDTNFNEKFKNRVTITADKSTSTAYMELSSLRSEDTAVYYCARGGYTMDYWGQG VL: DIVMTQTPLSLPVTPGEPASISCRSSQSLVHSNGNTYLHWYLQKPGQSPQLLIYKVSYRFSGVPDRFSGSGSGTDFTLKISRVEAEDVGVYYCSQNTHVPRTFGQG
2.8 fold of chimera | 1.4 fold of chimera | 1.2 fold of chimera | 1.2 fold of chimera | pVxK7b-037-hum21-LC/pVxK7b-037-hum21-HC (antibody, human IgG1, V domains shown, Full-length human IgG1/kappa in CHO supernatant; Variable entries end within framework 4 (...FGQG / ...WGQG); also called Clone 21) VH: QVQLQESGPGLVKPSQTLSLTCTVSGYTFTNYYVFWVRQARGQRLEWIGDINPVNGDTNFNEKFKNRLTISKDTSKNQVVLTMTNMDPVDTATYYCARGGYTMDYWGQG VL: AIQLTQSPSSLSASVGDRVTITCRSSQSLVHSNGNTYLHWYQQKPGQAPRLLIYKVSYRFSGVPDRFSGSGSGTDFTLKISRVEAEDVGVYYCSQNTHVPRTFGQG
2.1 fold of chimera | 1.1 fold of chimera | 0.9 fold of chimera | 1.2 fold of chimera | pVxK7b-037-hum06-LC/pVxK7b-037-hum06-HC (antibody, human IgG1, V domains shown, Full-length human IgG1/kappa in CHO supernatant; Variable entries end within framework 4 (...FGQG / ...WGQG); also called Clone 6) VH: QVQLQESGPGLVKPSQTLSLTCTVSGYTFTNYYVFWVRQARGQRLEWIGDINPVNGDTNFNEKFKNRLTISKDTSKNQVVLTMTNMDPVDTATYYCARGGYTMDYWGQG VL: DIQMTQSPSSLSASVGDRVTITCRSSQSLVHSNGNTYLHWYLQKPGQSPQLLIYKVSYRFSGIPARFSGSGSGTEFTLTISSLQSEDFAVYYCSQNTHVPRTFGQG
2.2 fold of chimera | 1.2 fold of chimera | 1 fold of chimera | 1 fold of chimera | pVxK7b-037-hum05-LC/pVxK7b-037-hum05-HC (antibody, human IgG1, V domains shown, Full-length human IgG1/kappa in CHO supernatant; Variable entries end within framework 4 (...FGQG / ...WGQG); also called Clone 5) VH: QVQLQESGPGLVKPSQTLSLTCTVSGYTFTNYYVFWVRQAPGKGLEWVSDINPVNGDTNFNEKFKNRVTISVDTSKNQFSLKLSSVTAADTAVYYCARGGYTMDYWGQG VL: DIVMTQTPLSLPVTPGEPASISCRSSQSLVHSNGNTYLHWYLQKPGQSPQLLIYKVSYRFSGVPDRFSGSGSGTDFTLKISRVEAEDVGVYYCSQNTHVPRTFGQG
3.1 fold of chimera | 1.4 fold of chimera | 1.2 fold of chimera | 1.3 fold of chimera | pVxK7b-037-hum13-LC/pVxK7b-037-hum13-HC (antibody, human IgG1, V domains shown, Full-length human IgG1/kappa in CHO supernatant; Variable entries end within framework 4 (...FGQG / ...WGQG); also called Clone 13) VH: EVQLVQSGAEVKKPGESLRISCKGSGYTFTNYYVFWIRQSPSRGLEWLGDINPVNGDTNFNEKFKNRVTITADKSTSTAYMELSSLRSEDTAVYYCARGGYTMDYWGQG VL: DIVMTQTPLSLPVTPGEPASISCRSSQSLVHSNGNTYLHWYQQKPGKAPKLLIYKVSYRFSGVPDRFSGSGSGTDFTLKISRVEAEDVGVYYCSQNTHVPRTFGQG

Second part, the binder before the results:

Binder | mean fluorescence relative to chimeric antibody (rat CD47) | mean fluorescence relative to chimeric antibody (pig CD47) | mean fluorescence relative to chimeric antibody (human CD47) | mean fluorescence relative to chimeric antibody (mouse CD47)
chimeric antibody VxP037-01LC/VxP037-01HC (antibody, human IgG1, kappa, V domains shown, tested as CHO supernatant; also called Chimera; VxP037-01-LC-Pro/VxP037-01-HC-Pro) VH: EVQLQQFGAELVKPGASMKLSCKASGYTFTNYYVFWVKQRPGQGLEWIGDINPVNGDTNFNEKFKNKATLTVDKSSTTTYLQLSSLTSEDSAVYYCTRGGYTMDYWGQGTLVTVSS VL: DVVMTQTPLSLSVSLGDQASISCRSSQSLVHSNGNTYLHWYLQKPGQSPKLLIYKVSYRFSGVPDRFSGSGSGTDFTLKISRVEAEDLGVYFCSQNTHVPRTFGQGTKVEIKR | 1 fold of chimera | 1 fold of chimera | 1 fold of chimera | 1 fold of chimera
pVxK7b-037-hum04-LC/pVxK7b-037-hum04-HC (antibody, human IgG1, V domains shown, Full-length human IgG1/kappa in CHO supernatant; Variable entries end within framework 4 (...FGQG / ...WGQG); also called Clone 4) VH: QVQLQESGPGLVKPSQTLSLTCTVSGYTFTNYYVFWVRQAPGKGLEWVSDINPVNGDTNFNEKFKNRVTISVDTSKNQFSLKLSSVTAADTAVYYCARGGYTMDYWGQG VL: DIQMTQSPSSLSASVGDRVTITCRSSQSLVHSNGNTYLHWYLQKPGQSPQLLIYKVSYRFSGIPARFSGSGSGTEFTLTISSLQSEDFAVYYCSQNTHVPRTFGQG | 1 fold of chimera | 0.6 fold of chimera | 0.6 fold of chimera | 0.6 fold of chimera
pVxK7b-037-hum15-LC/pVxK7b-037-hum15-HC (antibody, human IgG1, V domains shown, Full-length human IgG1/kappa in CHO supernatant; Variable entries end within framework 4 (...FGQG / ...WGQG); also called Clone 15) VH: QVQLQESGPGLVKPSQTLSLTCTVSGYTFTNYYVFWVRQARGQRLEWIGDINPVNGDTNFNEKFKNRLTISKDTSKNQVVLTMTNMDPVDTATYYCARGGYTMDYWGQG VL: AIQLTQSPSSLSASVGDRVTITCRSSQSLVHSNGNTYLHWYQQKPGQAPRLLIYKVSYRFSGVPSRFSGSGSGTEFTLTISSLQPDDFATYYCSQNTHVPRTFGQG | 2.4 fold of chimera | 1.2 fold of chimera | 1 fold of chimera | 1.3 fold of chimera
pVxK7b-037-hum02-LC/pVxK7b-037-hum02-HC (antibody, human IgG1, V domains shown, Full-length human IgG1/kappa in CHO supernatant; Variable entries end within framework 4 (...FGQG / ...WGQG); also called Clone 2) VH: QVQLQESGPGLVKPSQTLSLTCTVSGYTFTNYYVFWVRQARGQRLEWIGDINPVNGDTNFNEKFKNRVTISADKSISTAYLQWSSLKASDTAMYYCARGGYTMDYWGQG VL: DVVMTQSPLSLPVTLGQPASISCRSSQSLVHSNGNTYLHWYQQKPGQAPRLLIYKVSYRFSGVPSRFSGSGSGTEFTLTISSLQPDDFATYYCSQNTHVPRTFGQG | 2.6 fold of chimera | 1.2 fold of chimera | 1 fold of chimera | 1.2 fold of chimera
pVxK7b-037-hum19-LC/pVxK7b-037-hum19-HC (antibody, human IgG1, V domains shown, Full-length human IgG1/kappa in CHO supernatant; Variable entries end within framework 4 (...FGQG / ...WGQG); also called Clone 19) VH: EVQLVQSGAEVKKPGESLRISCKGSGYTFTNYYVFWIRQSPSRGLEWLGDINPVNGDTNFNEKFKNRVTITADKSTSTAYMELSSLRSEDTAVYYCARGGYTMDYWGQG VL: DVVMTQSPLSLPVTLGQPASISCRSSQSLVHSNGNTYLHWYQQKPGKAPKLLIYKVSYRFSGVPDRFSGSGSGTDFTLKISRVEAEDVGVYYCSQNTHVPRTFGQG | 2.6 fold of chimera | 1.3 fold of chimera | 0.7 fold of chimera | 1 fold of chimera
pVxK7b-037-hum03-LC/pVxK7b-037-hum03-HC (antibody, human IgG1, V domains shown, Full-length human IgG1/kappa in CHO supernatant; Variable entries end within framework 4 (...FGQG / ...WGQG); also called Clone 3) VH: EVQLVQSGAEVKKPGESLRISCKGSGYTFTNYYVFWVRQARGQRLEWIGDINPVNGDTNFNEKFKNRVTITADKSTSTAYMELSSLRSEDTAVYYCARGGYTMDYWGQG VL: DVVMTQSPLSLPVTLGQPASISCRSSQSLVHSNGNTYLHWYQQKPGKAPKLLIYKVSYRFSGVPDRFSGSGSGTDFTLKISRVEAEDVGVYYCSQNTHVPRTFGQG | 1.7 fold of chimera | 0.9 fold of chimera | 0.7 fold of chimera | 0.9 fold of chimera
